Consider eight molecules from patent publication US20030049625, “Rapid and sensitive proximity-based assay for the detection and quantification of DNA binding proteins” (Saint Louis University, published 2003).

Data set [1] deals with T1, CAP (cAMP receptor protein) (Escherichia coli, UniProt P0ACJ8 P0ACJ8:2-210). Description: FRET; two-color assay, CAP only, no change in fluorescein signal; 200 uM cAMP. To be noted: chain copies: 2; label: dT-fluorescein (TRP2), dT-dabcyl (TRP4); two half-site duplexes with short complementary overhangs. As for the experimental part: Nucleic acid constructs specific for each of the proteins to be detected may be labeled with probes that emit light at different wavelengths. In this example, the reaction mixture contained nucleic acid constructs labeled with 7-diethylaminocoumarin-3-carboxylic acid for detecting CAP protein (described in EXAMPLE 2) and nucleic acid constructs labeled with fluorescein for detecting TrpR protein (described in EXAMPLE 6). Specifically, 100 nM CAP5/CAP3, 120 nM CAP1/CAP4, 100 nM TRP2/TRP3, and 120 nM TRP1/TRP4 duplexes were present in the reaction mixture.
T1 sequence (P0ACJ8 2-210, one chain of several): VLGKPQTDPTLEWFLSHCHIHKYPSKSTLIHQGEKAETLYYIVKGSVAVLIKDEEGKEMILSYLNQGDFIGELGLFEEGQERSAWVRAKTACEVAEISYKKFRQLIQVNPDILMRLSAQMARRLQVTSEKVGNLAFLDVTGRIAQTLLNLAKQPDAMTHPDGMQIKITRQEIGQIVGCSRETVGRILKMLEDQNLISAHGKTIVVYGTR
All measurements were performed at 15° C. in 10 mM potassium phosphate (pH 7.6), 50 mM NaCl, 0.1 mM EDTA, 4 mM tryptophan, 200 μM cAMP, 10% glycerol, 0.01% sodium azide and 1.0 mg/ml BSA. The fluorescence spectra with the excitation at 433 nm (excitation of 7-diethylaminocoumarin-3-carboxylic acid, FIG. 17A) and with the excitation at 490 nm (excitation of fluorescein, FIG. 17B) were recorded in the absence of the proteins (curves 1), in the presence of CAP only (curves 2), in the presence of TrpR only (curves 3), and in the presence of both CAP and TrpR (curves 4). In the presence of only CAP there was no change in the fluorescein signal (FIG. 17B, curve 2) whereas about 60% quenching of the 7-diethylaminocoumarin-3-carboxylic acid signal was observed (FIG. 17A, curve 2). […]

Data set [2] concerns the target T1, CAP (cAMP receptor protein). Description: ratiometric FRET; 0-150 nM CAP, 200 uM cAMP, 25 C. To be noted: chain copies: 2; label: 7-diethylaminocoumarin-3-carboxylic acid on amino-dT (CAP6), dT-fluorescein (CAP2); two half-site duplexes with short complementary overhangs. Here is the method:
In a second experiment (FIG. 9), the pair of CAP6/CAP1 and CAP2/CAP3 nucleic acid duplexes were tested for the performance in CAP assay. In this assay format, the 7-diethylaminocoumarin-3-carboxylic acid present in the CAP6/CAP1 duplex functioned as a fluorescence donor and the fluorescein present in the CAP2/CAP3 duplex functioned as an acceptor. In this case, both the donor as well as the acceptor are fluorescent. The experiment was performed at 25° C. in 50 mM Tris/HCl (pH 8.0), 100 mM NaCl, 1 mM EDTA, 0.1 mg/ml BSA, and 200 μM cAMP. […] The shoulder observed at about 520 nm is due to the residual emission of fluorescein, which is also to a small extent excited at 433 nm. Upon addition of varying amounts of CAP in a range from 0 to 150 nM (curves 2 -9), a pronounced quenching of the peak at 475 nm and a pronounced enhancement of the peak at 520 nm is observed. Recall that the emission maximum of fluorescein is 520 nm. […] Also, as shown in the inset of FIG. 9, the ratio between the fluorescence intensities at 520 nm and 475 nm may be used to determine the concentration of DNA binding proteins. This ratiometric mode of signal detection could be particularly useful since it would be less prone to trivial errors (such as pipetting errors, general quenching by some unrelated compounds present in the assayed sample).

The target is the same in data set [3]. The experiment in a line: competition; no effect up to 194.2 nM; 200 uM cAMP, 50 mM NaCl. The conditions noted are these: chain copies: 2. An excerpt:
(§1) The fluorescence donor (fluorescein) and the fluorescence acceptor (dabcyl) were introduced into DNA fragments using commercially available dT-fluorescein and dT-dabcyl (Glen Research, Sterling, Va.), wherein dT stands fordeoxythymidine. The oligonucleotides were purified using reverse phase chromatography on a RPC column (Pharmacia) as previously described (Heyduk, E., and Heyduk, T. Anal. Biochem. 248, 216-227, 1997). The fractions containing the oligonucleotides were dried in a vacuum centrifuge concentrator and subsequently dissolved in 50 μl of water. The concentration of the stock solutions of oligonucleotides was determined by recording the UV-VIS absorption spectrum of a small aliquot of the stock solution diluted to 400 μl. The CAP1 oligonucleotide (SEQ ID NO:1) was hybridized with CAP4 oligonucleotide (SEQ ID NO:4) to generate the CAP1/CAP4 duplex and CAP2 oligonucleotide (SEQ ID NO:2) was hybridized with CAP3 oligonucleotide (SEQ ID NO:3) to generate the CAP2/CAP3 duplex. […] All subsequent fluorescence measurements were performed at 25° C. in 50-mM Tris/HCl (pH 8.0), 100 mM NaCl (or 50 mM NaCl where indicated), 1 mM EDTA, 0.1 mg/ml BSA, and 200 μM cAMP in 200 μl quartz cuvette using Aminco-Bowman Series 2 spectrofluorometer. The excitation wavelength was at 490 nm and the emission was recorded from 500 to 650 nm. […]

Data set [4] addresses T2, Trp repressor (TrpR) (UniProt P0A881 P0A881:2-108). The experiment in a line: FRET; specificity control.
Another data set has as its target Lac repressor (LacR) (UniProt P03023 P03023:1-360). The experiment in a line: FRET; 0-200 nM LacR, saturation ~150 nM, 50 nM DNA, 25 C; specificity confirmed with 5 mM IPTG. The conditions noted are these: chain copies: 4; label: dT-fluorescein (LAC2), dT-dabcyl (LAC4); two half-site duplexes with short complementary overhangs. As for the experimental part: The oligonucleotides were purified using reverse phase chromatography on RPC column (Amersham Pharmacia Biotech, Piscataway, N.J.) as previously described (Heyduk, E., and Heyduk, T. Anal. Biochem. 248, 216-227, 1997). The fractions containing the oligonucleotides were dried in Vacuum centrifuge concentrator and were dissolved in 50 μl of water. The concentration of the stock solutions of oligonucleotides was determined by recording the UV-VIS absorption spectrum of a small aliquot of the stock solution diluted to 400 μl. The LAC1 oligonucleotide (SEQ ID NO:12) was hybridized with the LAC4 oligonucleotide (SEQ ID NO:15) to generate the LAC1/LAC4 construct and the LAC2 oligonucleotide (SEQ ID NO:13) was hybridized with the LAC3 oligonucleotide (SEQ ID NO:14) to generate the LAC2/LAC3 construct. […] All subsequent fluorescence measurements were performed at 25° C. in 50 mM Tris/HCl (pH 8.0), 100 mM NaCl, 1 mM EDTA, and 0.1 mg/ml BSA. […]
The fluorescence spectra of 50 nM of LAC1/LAC4 plus LAC2/LAC3 were recorded in the absence of LacR (FIG. 14, curve 1) and in the presence of varying amounts of LacR in a range from 0-200 nM (FIG. 14, curves 2-7). Fluorescence signal quenching was proportional to the amount of LacR added to the reaction mixture, with saturation occurring at approximately 150 nM of LacR (FIG. 14, inset). […]

Data set [5] addresses T2, Trp repressor (TrpR). Description: FRET; two-color assay, TrpR only, no change in coumarin signal; 15 C.
For data set [6], the target named is T1, CAP (cAMP receptor protein). The experiment in a line: competition; unlabeled duplex blocks CAP detection; 200 uM cAMP, 50 mM NaCl. The conditions noted are these: chain copies: 2.
Description: as §1

Data set [7] concerns the target T2, Trp repressor (TrpR). The experiment in a line: FRET; 400 nM TrpR, no change.
Another data set deals with p53 (Homo sapiens, UniProt P04637 P04637:1-393). Description: FRET; 0-130 nM p53, quenching proportional to p53, 50 mM NaCl, 100 nM nonspecific 30-bp DNA, 25 C. To be noted: tags: full-length, expressed in bacteria (gift of K. S. Matthews); chain copies: 4; label: dT-fluorescein (P2), dT-dabcyl (P4); two half-site duplexes with short complementary overhangs. Here is the method: The oligonucleotides were purified using reverse phase chromatography on a RPC column as described previously (Heyduk, E., and Heyduk, supra). The fractions containing the oligonucleotides were dried in Vacuum centrifuge concentrator and were dissolved in 50 μl of water. The concentrations of the stock solutions of oligonucleotides were determined by recording the UV-VIS absorption spectrum of a small aliquot of the stock solution diluted to 400 μl. The P1 oligonucleotide (SEQ ID NO:20) was hybridized with the P4 oligonudeotide (SEQ ID NO:23) to generate the P1/P4 duplex construct and the P2 oligonucleotide (SEQ ID NO:21) was hybridized with the P3 (SEQ ID NO:22) oligonucleotide to generate the P2/P3 duplex construct. For the hybridization, the appropriate oligonucleotides were mixed at 10 μM concentration in 100 μl of 50 mM Tris/HCl (pH 8.0), 100 mM NaCl, 1 mM EDTA, heated for 1 min at 95° C. and then cooled to 25° C. for 1 hr. All subsequent fluorescence measurements were performed at 25° C. in 50-mM potassium phosphate (pH 7.5), 50 mM NaCl, and 0.5 mg/ml BSA containing also 100 nM of a nonspecific 30-bp DNA duplex. The DNA duplexes obtained upon hybridization are illustrated in FIG. 18. The duplexes contain a repeat of 10 bp PuPuPuC(A/T)(T/A)GPyPyPy (SEQ ID NO:24) motif split between the two DNA duplexes. […]
Chain of p53 (P04637 whole entry, one chain of several): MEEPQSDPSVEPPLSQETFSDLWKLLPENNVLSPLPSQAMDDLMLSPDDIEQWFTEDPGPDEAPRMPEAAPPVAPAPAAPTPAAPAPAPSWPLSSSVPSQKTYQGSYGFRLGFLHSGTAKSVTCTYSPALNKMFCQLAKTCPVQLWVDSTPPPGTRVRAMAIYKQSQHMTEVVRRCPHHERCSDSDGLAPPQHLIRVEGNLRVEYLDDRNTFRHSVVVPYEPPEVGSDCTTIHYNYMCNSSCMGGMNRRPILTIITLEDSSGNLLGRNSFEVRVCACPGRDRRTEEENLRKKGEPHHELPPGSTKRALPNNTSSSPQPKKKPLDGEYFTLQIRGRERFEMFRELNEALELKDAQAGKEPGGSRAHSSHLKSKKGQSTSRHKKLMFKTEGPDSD

Chain of Lac repressor (LacR) (P03023 whole entry, one chain of several): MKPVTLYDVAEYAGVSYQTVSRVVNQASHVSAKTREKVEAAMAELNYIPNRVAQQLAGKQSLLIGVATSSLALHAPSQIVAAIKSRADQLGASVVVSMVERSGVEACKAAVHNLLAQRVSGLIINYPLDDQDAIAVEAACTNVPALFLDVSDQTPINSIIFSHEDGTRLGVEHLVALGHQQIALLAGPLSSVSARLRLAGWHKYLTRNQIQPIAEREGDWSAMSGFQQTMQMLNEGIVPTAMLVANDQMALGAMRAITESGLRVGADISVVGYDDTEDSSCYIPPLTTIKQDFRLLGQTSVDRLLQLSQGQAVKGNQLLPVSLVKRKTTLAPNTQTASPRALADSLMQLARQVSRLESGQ

B1: TRP1/TRP4 + TRP2/TRP3 (dsDNA)
DNA 1: GAGATCTATCGAACTA
DNA 2: GTTTACTAGTTCGATAGATCTC
DNA 3: GTAAACTAGTACGAAACTAGAG
DNA 4: CTCTAGTTTCGTACTA
modifications: [strand 2: T2 (N, modified T); strand 3: T2 (N, modified T)]
With B1, the binding result in data set [1] is listed as “no binding”.

B2: CAP6/CAP1 + CAP2/CAP3 (dsDNA)
DNA 1: TCTACTTCACATTTATTGCGTT
DNA 2: AACGCAATAAATGTGA
DNA 3: AGTAGATCACATTTTAGGCACC
DNA 4: GGTGCCTAAAATGTGA
modifications: [strand 1: T3 (N, modified T); strand 3: T3 (N, modified T)]
B2: the binding result in data set [2] is “binds”.

B3: NSP1 duplex (dsDNA)
DNA 1: GCATCGGTCACTGCAGTCTCGACAGCTACG
DNA 2: CGTAGCTGTCGAGACTGCAGTGACCGATGC
As for B3, the binding result in data set [3] was “no binding”.

B4: LAC1/LAC4 + LAC2/LAC3 (dsDNA)
DNA 1: GGTGTGTGGAATTGTGA
DNA 2: ATACGCTCACAATTCCACACACC
DNA 3: GCGTATAACAATTTCACACAGG
DNA 4: CTTGTGTGAAATTGTT
modifications: [strand 2: T2 (N, modified T); strand 3: T4 (N, modified T)]
For the molecule B4, the binding result in the data set with Trp repressor (TrpR) [4] is “no binding”; in the data set with Lac repressor (LacR), “binds”.

B5: CAP5/CAP3 + CAP4/CAP1 (dsDNA)
DNA 1: AGTAGATCACATTTTAGGCACC
DNA 2: GGTGCCTAAAATGTGA
DNA 3: TCTACTTCACATTTATTGCGTT
DNA 4: AACGCAATAAATGTGA
modifications: [strand 1: T3 (N, modified T); strand 3: T3 (N, modified T)]
As to B5, in the data set with Trp repressor (TrpR) [5], the binding result is given as “no binding”.

B6: SP1 duplex (dsDNA)
DNA 1: CCTAAAATGTGATCTAGATCACATTTATTG
DNA 2: CAATAAATGTGATCTAGATCACATTTTAGG
As for B6, the binding result in data set [6] is reported as “binds”.

B7: CAP1/CAP4 + CAP2/CAP3 (dsDNA)
DNA 1: AACGCAATAAATGTGA
DNA 2: TCTACTTCACATTTATTGCGTT
DNA 3: AGTAGATCACATTTTAGGCACC
DNA 4: GGTGCCTAAAATGTGA
modifications: [strand 2: T3 (N, modified T); strand 3: T3 (N, modified T)]
In the case of B7, the binding result with Trp repressor (TrpR) [7] was “no binding”.

B8: P1/P4 + P2/P3 (dsDNA)
DNA 1: GCATCGGTCACAGACA
DNA 2: TGTCTAGGCATGTCTGTGACCGATGC
DNA 3: TGCCTAGACATGCCTTGCAGTCTCGA
DNA 4: TCGAGACTGCAAGGCA
modifications: [strand 2: T5 (N, modified T); strand 3: T5 (N, modified T)]
As to B8, in the data set with p53, the binding result is “binds”.
